Each block holds one binder with its values, some of them ahead of it.
Tests used:
huIL-18Rβ-HisAvi [1] = biological target: T1, huIL-18Rβ-HisAvi (human, UniProt O95256 20-356, biotinylated in the Octet blocking assay); assay: SPR Biacore T200, mAb captured on anti-human Fc, huIL-18Rβ-HisAvi as analyte, PBST pH 6.0, 37 °C, 1:1 Binding fit
T1 construct: Soluble analyte in all SPR runs; captured on streptavidin sensors in the Octet assay; also called human IL-18Rβ; human IL-18Rβ-Avi-His
T1 sequence: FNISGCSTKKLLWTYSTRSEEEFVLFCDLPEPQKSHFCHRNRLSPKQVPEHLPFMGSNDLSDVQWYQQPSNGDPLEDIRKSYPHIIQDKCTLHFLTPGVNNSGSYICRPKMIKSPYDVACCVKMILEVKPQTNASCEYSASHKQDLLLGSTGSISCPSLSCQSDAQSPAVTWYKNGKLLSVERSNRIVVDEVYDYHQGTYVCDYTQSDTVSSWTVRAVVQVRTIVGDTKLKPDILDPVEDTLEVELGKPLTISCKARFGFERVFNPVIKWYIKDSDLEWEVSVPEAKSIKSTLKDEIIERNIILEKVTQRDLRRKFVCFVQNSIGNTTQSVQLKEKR

huIL-18Rβ-HisAvi [2] = biological target: T1, huIL-18Rβ-HisAvi; assay: SPR Biacore T200, mAb captured on anti-human Fc, huIL-18Rβ-HisAvi as analyte, PBST pH 5.5, 37 °C, 1:1 Binding fit
human IL-18Rβ on cells [3] = biological target: T2, human IL-18Rβ on cells (human, UniProt O95256 20-599); assay: cell-based or functional assay
T2 sequence: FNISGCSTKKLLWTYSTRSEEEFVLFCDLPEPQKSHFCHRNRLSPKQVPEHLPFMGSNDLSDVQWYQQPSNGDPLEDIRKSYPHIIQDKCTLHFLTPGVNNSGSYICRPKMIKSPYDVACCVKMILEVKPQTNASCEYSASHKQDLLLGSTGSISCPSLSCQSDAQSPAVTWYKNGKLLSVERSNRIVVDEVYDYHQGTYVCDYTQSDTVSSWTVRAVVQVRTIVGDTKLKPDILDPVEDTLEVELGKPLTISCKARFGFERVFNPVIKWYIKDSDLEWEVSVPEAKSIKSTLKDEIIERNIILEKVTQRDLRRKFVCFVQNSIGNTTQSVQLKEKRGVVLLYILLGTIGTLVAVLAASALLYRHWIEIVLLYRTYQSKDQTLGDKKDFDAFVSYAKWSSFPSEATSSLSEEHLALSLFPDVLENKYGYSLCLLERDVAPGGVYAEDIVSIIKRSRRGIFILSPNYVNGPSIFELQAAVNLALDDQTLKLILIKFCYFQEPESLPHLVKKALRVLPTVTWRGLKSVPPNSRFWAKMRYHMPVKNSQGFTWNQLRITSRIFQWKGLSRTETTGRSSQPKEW

human IL-18Rβ on cells [4] = biological target: T2, human IL-18Rβ on cells; assay: cell-based or functional assay; remark: listed apart in the source
human IL-18Rβ on cells [5] = biological target: T2, human IL-18Rβ on cells; assay: cell-based or functional assay; remark: listed apart in the source
huIL-18Rβ-HisAvi [6] = biological target: T1, huIL-18Rβ-HisAvi; assay: SPR T200, pH 7; sample 4 w 4C
huIL-18Rβ-HisAvi [7] = biological target: T1, huIL-18Rβ-HisAvi; assay: SPR T200, pH 7; sample 4 w 40C
huIL-18Rβ-HisAvi [8] = biological target: T1, huIL-18Rβ-HisAvi; assay: SPR T200, pH 7; sample T0
human IL-18Rβ on cells [9] = biological target: T2, human IL-18Rβ on cells; assay: cell-based or functional assay; remark: listed apart in the source
human IL-18Rβ on cells [10] = biological target: T2, human IL-18Rβ on cells; assay: cell-based or functional assay; remark: listed apart in the source

- apparent Kd (pooled screen) (huIL-18Rβ-HisAvi [1]): 2.35 nM
- apparent koff (pooled screen) (huIL-18Rβ-HisAvi [1]): 0.000329 s⁻¹
- apparent kon (pooled screen) (huIL-18Rβ-HisAvi [1]): 140000 M⁻¹ s⁻¹
- apparent Kd (pooled screen) (huIL-18Rβ-HisAvi [2]): 2.56 nM
- apparent koff (pooled screen) (huIL-18Rβ-HisAvi [2]): 0.000282 s⁻¹
- apparent kon (pooled screen) (huIL-18Rβ-HisAvi [2]): 110000 M⁻¹ s⁻¹
B1: P20 (antibody, human IgG1, kappa)
heavy: QVQLQQSGPGLVKPSETLSLTCTVSGGSINNYYWSWIRQPPGKGLEWIGYIFYSGTTNYNPSLKSRVTISVDTSKNQFSLKLSSVTAADTAVYYCARDVGIAARNSYYYVMDVWGQGTTVTVSSASTKGPSVFPLAPSSKSTSGGTAALGCLVKDYFPEPVTVSWNSGALTSGVHTFPAVLQSSGLYSLSSVVTVPSSSLGTQTYICNVNHKPSNTKVDKRVEPKSCDKTHTCPPCPAPEAEGAPSVFLFPPKPKDTLMISRTPEVTCVVVDVSHEDPEVKFNWYVDGVEVHNAKTKPREEQYNSTYRVVSVLTVLHQDWLNGKEYKCKVSNKALPAPIEKTISKAKGQPREPQVYTLPPSREEMTKNQVSLTCLVKGFYPSDIAVEWESNGQPENNYKTTPPVLDSDGSFFLYSKLTVDKSRWQQGNVFSCSVMHEALHNHYTQKSLSLSPG
light: AIQLTQSPSSLSASVGDRVTITCRASQGISSALAWYQQKPGKAPKFLIYDASSLESGVPSRFSGSGSGTDFTLTISSLQPEDFATYYCQQFNSYPITFGQGTRLEIKRTVAAPSVFIFPPSDEQLKSGTASVVCLLNNFYPREAKVQWKVDNALQSGNSQESVTEQDSKDSTYSLSSTLTLSKADYEKHKVYACEVTHQGLSSPVTKSFNRGEC
notes: Human IgG

- IC50, IFNg, human whole blood IL-18+IL-12, Average (human IL-18Rβ on cells [3]): 2.28 nM
- IC50, IFNg, human whole blood IL-18+IL-12, donor C121 (human IL-18Rβ on cells [3]): 3.6 nM
- IC50, IFNg, human whole blood IL-18+IL-12, donor C121 (second row) (human IL-18Rβ on cells [3]): 1.3 nM
- IC50, IFNg, human whole blood IL-18+IL-12, donor C175 (human IL-18Rβ on cells [3]): 0.5 nM
- IC50, IFNg, human whole blood IL-18+IL-12, donor C237 (human IL-18Rβ on cells [3]): 2.74 nM
- IC50, IFNg, human whole blood IL-18+IL-12, donor C238 (human IL-18Rβ on cells [3]): 1.35 nM
- IC50, IFNg, human whole blood IL-18+IL-12, donor C249 (human IL-18Rβ on cells [3]): 4.29 nM
- IC50, IFNg, human whole blood IL-18+IL-12, donor C252 (human IL-18Rβ on cells [3]): 3.23 nM
- IC50, IFNg, human whole blood IL-18+IL-12, donor C253 (human IL-18Rβ on cells [3]): 1.24 nM
- Average IC50, LPS+IL-12 dependent IFNg production, human whole blood (human IL-18Rβ on cells [4]): 1.04 nM
- IC50, IL-18-mediated IFNg release, KG-1 cells, Average (human IL-18Rβ on cells [5]): 2.01 nM
- IC50, IL-18-mediated IFNg release, KG-1 cells, Exp. #1 (human IL-18Rβ on cells [5]): 0.96 nM
- IC50, IL-18-mediated IFNg release, KG-1 cells, Exp. #2 (human IL-18Rβ on cells [5]): 2.1 nM
- IC50, IL-18-mediated IFNg release, KG-1 cells, Exp. #3 (human IL-18Rβ on cells [5]): 1.46 nM
- IC50, IL-18-mediated IFNg release, KG-1 cells, Exp. #4 (human IL-18Rβ on cells [5]): 1.2 nM
- IC50, IL-18-mediated IFNg release, KG-1 cells, Exp. #5 (human IL-18Rβ on cells [5]): 2.94 nM
- IC50, IL-18-mediated IFNg release, KG-1 cells, Exp. #6 (human IL-18Rβ on cells [5]): 2.8 nM
- IC50, IL-18-mediated IFNg release, KG-1 cells, Exp. #7 (human IL-18Rβ on cells [5]): 2.6 nM
- Kd (huIL-18Rβ-HisAvi [6]): 0.2 nM
- koff (huIL-18Rβ-HisAvi [6]): 5.7e-05 s⁻¹
- kon (huIL-18Rβ-HisAvi [6]): 280000 M⁻¹ s⁻¹
- Kd (huIL-18Rβ-HisAvi [7]): 0.5 nM
- koff (huIL-18Rβ-HisAvi [7]): 0.00014 s⁻¹
- kon (huIL-18Rβ-HisAvi [7]): 290000 M⁻¹ s⁻¹
- Kd (huIL-18Rβ-HisAvi [8]): 0.27 nM
- koff (huIL-18Rβ-HisAvi [8]): 7.2e-05 s⁻¹
- kon (huIL-18Rβ-HisAvi [8]): 270000 M⁻¹ s⁻¹
- IC50, IFNg, human whole blood LPS+IL-12, Average (human IL-18Rβ on cells [9]): 1.6 nM
- IC50, IFNg, human whole blood LPS+IL-12, donor C163 (human IL-18Rβ on cells [9]): 1.1 nM
- IC50, IFNg, human whole blood LPS+IL-12, donor C175 (human IL-18Rβ on cells [9]): 1.48 nM
- IC50, IFNg, human whole blood LPS+IL-12, donor C177 (human IL-18Rβ on cells [9]): 0.47 nM
- IC50, IFNg, human whole blood LPS+IL-12, donor C198 (human IL-18Rβ on cells [9]): 4.9 nM
- IC50, IFNg, human whole blood LPS+IL-12, donor C200 (human IL-18Rβ on cells [9]): 2.55 nM
- IC50, IFNg, human whole blood LPS+IL-12, donor C205 (human IL-18Rβ on cells [9]): 1.56 nM
- IC50, IFNg, human whole blood LPS+IL-12, donor C215 (human IL-18Rβ on cells [9]): 1.54 nM
- IC50, IFNg, human whole blood LPS+IL-12, donor C223 (human IL-18Rβ on cells [9]): 0.83 nM
- IC50, IFNg, human whole blood LPS+IL-12, donor C229 (human IL-18Rβ on cells [9]): 1.3 nM
- IC50, IFNg, human whole blood LPS+IL-12, donor C238 (human IL-18Rβ on cells [9]): 0.57 nM
- IC50, IFNg, human whole blood LPS+IL-12, donor C241 (human IL-18Rβ on cells [9]): 1.2 nM
- IC50, IFNg, human whole blood LPS+IL-12, donor C245 (human IL-18Rβ on cells [9]): 1.22 nM
- IC50, IFNg, human whole blood LPS+IL-12, donor C251 (human IL-18Rβ on cells [9]): 1.7 nM
- IC50, IFNg, human whole blood LPS+IL-12, donor C256 (human IL-18Rβ on cells [9]): 1.38 nM
- IC50, IFNg, human whole blood LPS+IL-12, donor C257 (human IL-18Rβ on cells [9]): 2.22 nM
- Average IC50, IFNg, Crohn's disease LPLs, IL-18+IL-12 (human IL-18Rβ on cells [10]): 18.3 nM
- Average IC50, IFNg, healthy (non-IBD) LPLs, IL-18+IL-12 (human IL-18Rβ on cells [10]): 39.8 nM
- IC50, IFNg, Crohn's disease LPLs, IL-18+IL-12, replicate 1 (human IL-18Rβ on cells [10]): 3.82 nM
- IC50, IFNg, Crohn's disease LPLs, IL-18+IL-12, replicate 2 (human IL-18Rβ on cells [10]): 15.4 nM
- IC50, IFNg, Crohn's disease LPLs, IL-18+IL-12, replicate 3 (human IL-18Rβ on cells [10]): 89.9 nM
- IC50, IFNg, Crohn's disease LPLs, IL-18+IL-12, replicate 4 (human IL-18Rβ on cells [10]): 9.47 nM
- IC50, IFNg, Crohn's disease LPLs, IL-18+IL-12, replicate 5 (human IL-18Rβ on cells [10]): 19.6 nM
- IC50, IFNg, Crohn's disease LPLs, IL-18+IL-12, replicate 6 (human IL-18Rβ on cells [10]): 5.68 nM
- IC50, IFNg, Crohn's disease LPLs, IL-18+IL-12, replicate 7 (human IL-18Rβ on cells [10]): 0.9 nM
- IC50, IFNg, Crohn's disease LPLs, IL-18+IL-12, replicate 8 (human IL-18Rβ on cells [10]): 1.33 nM
- IC50, IFNg, healthy (non-IBD) LPLs, IL-18+IL-12, replicate 1 (human IL-18Rβ on cells [10]): 12.8 nM
- IC50, IFNg, healthy (non-IBD) LPLs, IL-18+IL-12, replicate 2 (human IL-18Rβ on cells [10]): 9.57 nM
- IC50, IFNg, healthy (non-IBD) LPLs, IL-18+IL-12, replicate 3 (human IL-18Rβ on cells [10]): 44.8 nM
- IC50, IFNg, healthy (non-IBD) LPLs, IL-18+IL-12, replicate 4 (human IL-18Rβ on cells [10]): 132 nM
- IC50, IFNg, healthy (non-IBD) LPLs, IL-18+IL-12, replicate 5 (human IL-18Rβ on cells [10]): 0.0116 nM
B2: P20-V1 (antibody, human IgG1, kappa, V domains shown)
VH: QVQLQESGPGLVKPSETLSLTCTVSGGSINNYYWSWIRQPPGKGLEWIGYIFYSGTTNYNPSLKSRVTISVDTSKNQFSLKLSSVTAADTAVYYCARDVGIAARNSYYYVMDVWGQGTTVTVSS
VL: AIQLTQSPSSLSASVGDRVTITCRASQGISSALAWYQQKPGKAPKFLIYEASSLESGVPSRFSGSGSGTDFTLTISSLQPEDFATYYCQQFNSYPITFGQGTRLEIKR
notes: Variant of P20
- Average IC50, IFNg, ulcerative colitis LPLs, IL-18+IL-12 (human IL-18Rβ on cells [10]): 16.5 nM
- IC50, IFNg, ulcerative colitis LPLs, IL-18+IL-12, replicate 1 (human IL-18Rβ on cells [10]): 34.4 nM
- IC50, IFNg, ulcerative colitis LPLs, IL-18+IL-12, replicate 2 (human IL-18Rβ on cells [10]): 10.8 nM
- IC50, IFNg, ulcerative colitis LPLs, IL-18+IL-12, replicate 3 (human IL-18Rβ on cells [10]): 10.3 nM
- IC50, IFNg, ulcerative colitis LPLs, IL-18+IL-12, replicate 4 (human IL-18Rβ on cells [10]): 2.63 nM
- IC50, IFNg, ulcerative colitis LPLs, IL-18+IL-12, replicate 5 (human IL-18Rβ on cells [10]): 0.0024 nM
- IC50, IFNg, ulcerative colitis LPLs, IL-18+IL-12, replicate 6 (human IL-18Rβ on cells [10]): 0.402 nM
- IC50, IFNg, ulcerative colitis LPLs, IL-18+IL-12, replicate 7 (human IL-18Rβ on cells [10]): 56.7 nM
